The target of data set [1] is full length human extracellular superoxide dismutase (residues 1-240), (His)6-FLAG-PreScission site fusion (human) (UniProt P08294). Description: SEC. Background: Size exclusion chromatography separates by hydrodynamic size, large species first.
The data set “SEC” deals with the molecule itself. Description: SEC.

With “full length human extracellular superoxide dismutase (residues 1-240), (His)6-FLAG-PreScission site fusion (from UniProt P08294 19-240) (enzyme)”, the stoichiometry N in data set [1] was determined as 8.

B1: truncated/mature human extracellular superoxide dismutase (residues 19-240), (His)6-FLAG-PreScission site fusion (enzyme, UniProt P08294 19-240, looked up)
chain: WTGEDSAEPNSDSAEWIRDMYAKVTEIWQEVMQRRDDDGALHAACQVQPSATLDAAQPRVTGVVLFRQLAPRAKLDAFFALEGFPTEPNSSSRAIHVHQFGDLSQGCESTGPHYNPLAVPHPQHPGDFGNFAVRDGSLWRYRAGLAASLAGPHSIVGRAVVVHAGEDDLGRGGNQASVENGNAGRRLACCVVGVCGPGLWERQAREHSERKKRRRESECKAA
modifications: N-glycosylated at Asn107
Regarding B1, the “stoichiometry N” value in “SEC” came to 8.

As usually defined, the stoichiometry N is the number of molecules, sites or subunits per partner or assembly.
